Measurements reported in publication PMC13544220, “Glycemic and bodyweight effects of GIPR coding variation reflect differences in surface expression and intrinsic functional impairment” (Science Advances, 2026).
Residue numbers refer to the chain shown, from its start. Numbers in names are those of the source.

B1: E354Q (protein)
chain: RAETGSKGQTAGELYQRWERYRRECQETLAAAEPPSGLACNGSFDMYVCWDYAAPNATARASCPWYLPWHHHVAAGFVLRQCGSDGQWGLWRDHTQCENPEKNEAFLDQRLILERLQVMYTVGYSLSLATLLLALLILSLFRRLHCTRNYIHINLFTSFMLRAAAILSRDRLLPRPGPYLGDQALALWNQALAACRTAQIVTQYCVGANYTWLLVEGVYLHSLLVLVGGSEEGHFRYYLLLGWGAPALFVIPWVIVRYLYENTQCWERNEVKAIWWIIRTPILMTILINFLIFIRILGILLSKLRTRQMRCRDYRLRLARSTLTLVPLLGVHQVVFAPVTEEQARGALRFAKLGFEIFLSSFQGFLVSVLYCFINKEVQSEIRRGWHHCRLRRSLGEEQRQLPERAFRALPSGSGPGEVPTSRGLSSGTLPGPGNEASRELESYC
B2: R190Q (protein)
chain: B1 chain with R169Q, Q333E
modifications: left off: SNAP-tag, end not stated, kept
B3: R101H (protein)
chain: B1 chain with R80H, Q333E

Experiments:
Assay type in all cases: cell-based, human
[1] = system: wild-type and variant SNAP-GIPR; test: Constitutive and agonist-mediated internalization, reversible SNAP-tag labelling, AD293 cells; design: key to Internalisation, Vehicle / Internalisation, +GIP / Internalisation, GIP-only: % internalization: residual fluorescence after Mesna vs pre-Mesna; Surface expression: unit not given here; conditions: Mean; for +GIP internalisation (100 nM) / GIP-specific internalisation (100 nM) / Constitutive internalisation (100 nM) / Surface expression: Fig 4E; for +GIP internalisation (100 nM) / GIP-specific internalisation (100 nM): GIP 100 nM; for Internalisation, +GIP / Internalisation, GIP-only / Internalisation, Vehicle: Fig S4C, AD293
Procedure, shortened: (§1)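 Surface SNAP-GIPR signal removable by Mesna was tracked by imaging before and 10 min after treatment in pH 8.6 TNE buffer. Internalization is the Mesna-resistant share of specific fluorescence.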

[2] = system: wild-type and variant SNAP-GIPR; test: cADDis cAMP imaging in AD293 cells, ensemble, expression-matched and per decile; conditions: Fig S3F, cADDis, mean
Procedure, shortened: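 Transient SNAP-GIPR plus cADDis BacMam in AD293; 24 h; SNAP-Surface AF647 500 nM, 10 min RT; wide-field 10X imaging at 37°C in KRBH/6 mM glucose/0.1% BSA. Cells failing IBMX/FSK response criteria excluded.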

[3] = system: wild-type and variant SNAP-GIPR in Gipr-/- mouse islets; test: Surface SNAP-GIPR expression in pancreatic islets; conditions: Fig 6B
Description: Islets were purified from Gipr^−/− mice as described in the “Islet isolation and culture” section. Islets were transduced with adenoviral wild-type or variant SNAP-tagged GIPR constructs (VectorBuilder) per the manufacturer’s instructions. All variants were tested in parallel on each occasion to control for transduction efficiency. Twenty-four hours posttransduction, whole, intact islets were labeled with SNAP-Surface Alexa Fluor 647 for 15 min at 37°C. Following labeling, the islets were placed in a drop of PBS in the center of a glass-bottom MatTek dish and imaged on a Zeiss LSM 780 inverted confocal microscope fitted with a 63X/1.4 NA oil immersion objective. Receptor surface levels were quantified in Fiji using a macro using full width at half maximum (FWHM) designed by the Facility for Imaging and Light Microscopy (FILM) at Imperial College London and expressed relative to wild-type GIPR. In additional experiments, islets transduced as above and labeled with SNAP-Surface-647 were fixed in 4% paraformaldehyde, permeabilized in 0.5% (v/v) Triton X-100 in PBS (15 min), washed once with PBS and incubated in blocking buffer (PBS and 1% BSA) for 1 hour, and incubated overnight at 4°C in primary antibodies against insulin (1:50; Dako IR002, Agilent Technologies) and glucagon (1:500; G2654, Sigma-Aldrich) in blocking buffer.

[4] = system: wild-type and variant SNAP-GIPR; test: Single-concentration GIP cAMP response by HTRF in AD293 cells; conditions: Fig S3F, HTRF, mean;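 further: ratio to experiment-wide average response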
Description: All variants were tested in parallel on each occasion to control for transfection efficiency differences between experiments.

[5] = system: wild-type and variant SNAP-GIPR; test: Constitutive and agonist-mediated internalization, reversible SNAP-tag labelling, INS-1 cells; design: key to Internalisation, GIP-only / Internalisation, Vehicle / Internalisation, +GIP: % internalization: residual fluorescence after Mesna vs pre-Mesna; conditions: Mean; for +GIP internalisation (100 nM) / GIP-specific internalisation (100 nM) / Constitutive internalisation (100 nM): Fig 4G; for +GIP internalisation (100 nM) / GIP-specific internalisation (100 nM): GIP 100 nM; for Internalisation, +GIP / Internalisation, GIP-only / Internalisation, Vehicle: Fig S4C, INS-1
Procedure, shortened: as §1

| Molecule | +GIP internalisation (100 nM) [1] | GIP-specific internalisation (100 nM) [1] | Constitutive internalisation (100 nM) [1] | Surface expression [1] | Internalisation, +GIP [1] | Internalisation, GIP-only [1] | Internalisation, Vehicle [1] | AD293 100 pM cADDis [2] | AD293 100 nM cADDis [2] | Surface SNAP-GIPR expression in pancreatic islets ([3]; replicate 1) | Surface SNAP-GIPR expression in pancreatic islets ([3]; replicate 2) | Surface SNAP-GIPR expression in pancreatic islets ([3]; replicate 3) | Surface SNAP-GIPR expression in pancreatic islets ([3]; replicate 4) | Surface SNAP-GIPR expression in pancreatic islets ([3]; replicate 5) | AD293 100 pM HTRF [4] | AD293 100 nM HTRF [4] | +GIP internalisation (100 nM) [5] | GIP-specific internalisation (100 nM) [5] | Constitutive internalisation (100 nM) [5] | Internalisation, +GIP [5] | other results |
| --- | --- | --- | --- | --- | --- | --- | --- | --- | --- | --- | --- | --- | --- | --- | --- | --- | --- | --- | --- | --- | --- |
| B1 | 0.4635 | 0.1217 | 0.3419 | 0.6766 | 68.6221 | 17.9918 | 50.6302 | 41.2353 | 37.94 | 1.913 | 1.476 | 1.8301 | 2.1125 | 2.267 | 4.703 | 1.4229 | 0.4403 | 0.1518 | 0.2885 | 61.4683 | Internalisation, GIP-only [5]: 21.0467; Internalisation, Vehicle [5]: 40.4217 |
| B2 | 0.1813 | -0.007972 | 0.1892 | 0.3493 | 51.2548 | -3.738 | 54.9926 | -0.9408 | 9.541 | 0.6777 | 0.189 | 0.9549 | -0.2055 | -0.1767 | 0.272 | 0.2205 | 0.2705 | 0.0143 | 0.2562 | 45.6067 | Internalisation, GIP-only [5]: 2.692; Internalisation, Vehicle [5]: 42.915 |
| B3 | 0.1328 | 0.01912 | 0.1137 | 0.2712 | 49.9522 | 4.89 | 45.062 | 6.465 | 17.19 | 0.3446 | 0.4042 | 0.02787 | 0.08995 | -0.05398 | -0.001017 | 0.2474 | 0.1025 | -0.004871 | 0.1074 | 52.1317 | Internalisation, GIP-only [5]: -2.542; Internalisation, Vehicle [5]: 54.6733 |
